From article PMC11018839, “ANKFY1 bridges ATG2A-mediated lipid transfer from endosomes to phagophores” (Cell Discovery, 2024)

Target: T1, purified Flag-ATG2A-His protein (human, UniProt Q2TAZ0 1-1938)
T1 construct: ATG2A, human; Flag-ATG2A-His with a C-terminal His tag; not shown: His tag, C-terminal, kept
Assay: liposome co-flotation; 100 nm liposomes with 5% PI3P (2% Rhod-PE, 30% POPE, 63% DOPC), 1 mM lipids, incubated with 4.28 uM ANKFY1, 0.5 uM ATG2A or both at 37 °C for 1 h; 50 mM HEPES pH 8.0, 300 mM NaCl, 1 mM TCEP; floated on a histodenz gradient; topmost fraction analysed by SDS-PAGE and western blot
Conditions: both partners purified

T1 sequence (Q2TAZ0 whole entry): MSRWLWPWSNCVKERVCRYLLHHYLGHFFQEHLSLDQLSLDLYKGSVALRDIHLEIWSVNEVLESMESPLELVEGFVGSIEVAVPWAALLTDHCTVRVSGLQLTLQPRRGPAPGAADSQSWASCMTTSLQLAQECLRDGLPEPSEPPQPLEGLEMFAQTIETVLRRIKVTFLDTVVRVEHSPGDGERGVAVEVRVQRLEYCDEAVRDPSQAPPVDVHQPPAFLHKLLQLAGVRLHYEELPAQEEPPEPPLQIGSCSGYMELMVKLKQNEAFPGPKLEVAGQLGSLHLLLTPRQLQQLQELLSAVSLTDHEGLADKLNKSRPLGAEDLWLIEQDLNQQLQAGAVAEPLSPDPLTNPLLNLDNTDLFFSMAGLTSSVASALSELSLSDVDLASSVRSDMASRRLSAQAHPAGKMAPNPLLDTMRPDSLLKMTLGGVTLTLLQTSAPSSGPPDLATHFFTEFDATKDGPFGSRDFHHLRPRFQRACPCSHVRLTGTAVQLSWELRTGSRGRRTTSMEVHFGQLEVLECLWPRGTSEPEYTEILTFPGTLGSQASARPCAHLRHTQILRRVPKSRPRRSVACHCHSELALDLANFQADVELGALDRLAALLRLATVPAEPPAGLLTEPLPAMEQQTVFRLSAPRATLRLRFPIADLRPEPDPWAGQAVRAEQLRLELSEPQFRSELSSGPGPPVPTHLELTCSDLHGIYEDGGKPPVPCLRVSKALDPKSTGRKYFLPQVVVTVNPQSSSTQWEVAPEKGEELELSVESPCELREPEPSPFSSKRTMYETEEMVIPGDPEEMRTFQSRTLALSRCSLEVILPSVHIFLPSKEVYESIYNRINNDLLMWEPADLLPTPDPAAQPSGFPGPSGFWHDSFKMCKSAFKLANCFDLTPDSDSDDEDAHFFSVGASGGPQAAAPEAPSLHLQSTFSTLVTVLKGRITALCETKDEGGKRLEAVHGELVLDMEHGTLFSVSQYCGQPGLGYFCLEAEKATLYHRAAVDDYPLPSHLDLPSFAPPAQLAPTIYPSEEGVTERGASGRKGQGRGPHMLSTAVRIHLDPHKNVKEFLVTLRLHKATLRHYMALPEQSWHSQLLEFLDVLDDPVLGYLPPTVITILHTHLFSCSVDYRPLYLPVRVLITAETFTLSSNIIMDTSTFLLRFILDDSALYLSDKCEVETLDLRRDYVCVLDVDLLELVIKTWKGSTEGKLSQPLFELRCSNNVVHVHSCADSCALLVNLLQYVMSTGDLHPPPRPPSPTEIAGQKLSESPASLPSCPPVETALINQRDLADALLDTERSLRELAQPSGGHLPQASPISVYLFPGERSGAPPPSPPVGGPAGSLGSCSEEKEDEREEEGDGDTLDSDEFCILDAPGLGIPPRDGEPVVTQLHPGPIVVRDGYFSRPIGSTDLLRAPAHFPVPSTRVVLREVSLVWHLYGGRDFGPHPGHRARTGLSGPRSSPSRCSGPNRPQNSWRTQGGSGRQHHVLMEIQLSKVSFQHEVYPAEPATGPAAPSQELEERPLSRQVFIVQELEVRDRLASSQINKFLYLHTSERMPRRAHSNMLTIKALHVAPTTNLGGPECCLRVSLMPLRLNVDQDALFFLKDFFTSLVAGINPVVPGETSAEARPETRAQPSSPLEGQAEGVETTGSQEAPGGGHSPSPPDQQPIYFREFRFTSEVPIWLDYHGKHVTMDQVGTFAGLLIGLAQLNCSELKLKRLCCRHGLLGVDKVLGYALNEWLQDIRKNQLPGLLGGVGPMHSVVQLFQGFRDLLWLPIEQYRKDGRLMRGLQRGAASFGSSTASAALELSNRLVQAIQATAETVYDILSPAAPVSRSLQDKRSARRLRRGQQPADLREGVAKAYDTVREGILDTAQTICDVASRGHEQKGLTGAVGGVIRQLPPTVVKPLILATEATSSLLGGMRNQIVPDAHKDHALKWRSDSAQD

binding result: binds
B1: purified Flag-ANKFY1 full-length protein (natural protein, human, UniProt Q9P2R3 1-1169, looked up)
chain: MAEEEVAKLEKHLMLLRQEYVKLQKKLAETEKRCALLAAQANKESSSESFISRLLAIVADLYEQEQYSDLKIKVGDRHISAHKFVLAARSDSWSLANLSSTKELDLSDANPEVTMTMLRWIYTDELEFREDDVFLTELMKLANRFQLQLLRERCEKGVMSLVNVRNCIRFYQTAEELNASTLMNYCAEIIASHWDDLRKEDFSSMSAQLLYKMIKSKTEYPLHKAIKVEREDVVFLYLIEMDSQLPGKLNEADHNGDLALDLALSRRLESIATTLVSHKADVDMVDKSGWSLLHKGIQRGDLFAATFLIKNGAFVNAATLGAQETPLHLVALYSSKKHSADVMSEMAQIAEALLQAGANPNMQDSKGRTPLHVSIMAGNEYVFSQLLQCKQLDLELKDHEGSTALWLAVQHITVSSDQSVNPFEDVPVVNGTSFDENSFAARLIQRGSHTDAPDTATGNCLLQRAAGAGNEAAALFLATNGAHVNHRNKWGETPLHTACRHGLANLTAELLQQGANPNLQTEEALPLPKEAASLTSLADSVHLQTPLHMAIAYNHPDVVSVILEQKANALHATNNLQIIPDFSLKDSRDQTVLGLALWTGMHTIAAQLLGSGAAINDTMSDGQTLLHMAIQRQDSKSALFLLEHQADINVRTQDGETALQLAIRNQLPLVVDAICTRGADMSVPDEKGNPPLWLALANNLEDIASTLVRHGCDATCWGPGPGGCLQTLLHRAIDENNEPTACFLIRSGCDVNSPRQPGANGEGEEEARDGQTPLHLAASWGLEETVQCLLEFGANVNAQDAEGRTPIHVAISSQHGVIIQLLVSHPDIHLNVRDRQGLTPFACAMTFKNNKSAEAILKRESGAAEQVDNKGRNFLHVAVQNSDIESVLFLISVHANVNSRVQDASKLTPLHLAVQAGSEIIVRNLLLAGAKVNELTKHRQTALHLAAQQDLPTICSVLLENGVDFAAVDENGNNALHLAVMHGRLNNIRVLLTECTVDAEAFNLRGQSPLHILGQYGKENAAAIFDLFLECMPGYPLDKPDADGSTVLLLAYMKGNANLCRAIVRSGARLGVNNNQGVNIFNYQVATKQLLFRLLDMLSKEPPWCDGSYCYECTARFGVTTRKHHCRHCGRLLCHKCSTKEIPIIKFDLNKPVRVCNICFDVLTLGGVS
notes: ANKFY1, human, full length (ANKFY1-FL), N-terminal Flag tag, pCDNA4-TO vector; also called ANKFY1-FL; ANKFY1-Flag; source: 293S cells, purified (anti-Flag M2 resin, eluted with 3x Flag peptide); not shown: Flag, N-terminal, kept
